Target: recombinant small latent TGF-β
Assay: cell-based or functional assay

Row | Fold Activation of Latent TGF-β over Baseline (soft agar NRK colony formation) (fold over baseline) | Substance
1 | 2.5 | RFK (SEQ ID NO:18) (peptide)
2 | 2 | TSP stripped of TGF-β activity (sTSP) (from UniProt P07996 19-1170)

— patent publication US6384189
